The record followed here is IntAct's records for PubMed 15086532.

To fix the notation:
B1: Delta-type opioid receptor (Homo sapiens), P41143 (parent)
chain: MEPAPSAGAELQPPLFANASDAYPSACPSAGANASGPPGARSASSLALAIAITALYSAVCAVGLLGNVLVMFGIVRYTKMKTATNIYIFNLALADALATSTLPFQSAKYLMETWPFGELLCKAVLSIDYYNMFTSIFTLTMMSVDRYIAVCHPVKALDFRTPAKAKLINICIWVLASGVGVPIMVMAVTRPRDGAVVCMLQFPSPSWYWDTVTKICVFLFAFVVPILIITVCYGLMLLRLRSVRLLSGSKEKDRSLRRITRMVLVVVGAFVVCWAPIHIFVIVWTLVDIDRRDPLVVAALHLCIALGYANSSLNPVLYAFLDENFKRCFRQLCRKPCGRPDPSSFSRAREATARERVTACTPSDGPGGGAAA

Variants of B1 are the subject of the assay. As to conditions: with gasp1_human GPRASP1, Q5JY77.
Sequence of gasp1_human GPRASP1, Q5JY77 (Q5JY77 whole entry): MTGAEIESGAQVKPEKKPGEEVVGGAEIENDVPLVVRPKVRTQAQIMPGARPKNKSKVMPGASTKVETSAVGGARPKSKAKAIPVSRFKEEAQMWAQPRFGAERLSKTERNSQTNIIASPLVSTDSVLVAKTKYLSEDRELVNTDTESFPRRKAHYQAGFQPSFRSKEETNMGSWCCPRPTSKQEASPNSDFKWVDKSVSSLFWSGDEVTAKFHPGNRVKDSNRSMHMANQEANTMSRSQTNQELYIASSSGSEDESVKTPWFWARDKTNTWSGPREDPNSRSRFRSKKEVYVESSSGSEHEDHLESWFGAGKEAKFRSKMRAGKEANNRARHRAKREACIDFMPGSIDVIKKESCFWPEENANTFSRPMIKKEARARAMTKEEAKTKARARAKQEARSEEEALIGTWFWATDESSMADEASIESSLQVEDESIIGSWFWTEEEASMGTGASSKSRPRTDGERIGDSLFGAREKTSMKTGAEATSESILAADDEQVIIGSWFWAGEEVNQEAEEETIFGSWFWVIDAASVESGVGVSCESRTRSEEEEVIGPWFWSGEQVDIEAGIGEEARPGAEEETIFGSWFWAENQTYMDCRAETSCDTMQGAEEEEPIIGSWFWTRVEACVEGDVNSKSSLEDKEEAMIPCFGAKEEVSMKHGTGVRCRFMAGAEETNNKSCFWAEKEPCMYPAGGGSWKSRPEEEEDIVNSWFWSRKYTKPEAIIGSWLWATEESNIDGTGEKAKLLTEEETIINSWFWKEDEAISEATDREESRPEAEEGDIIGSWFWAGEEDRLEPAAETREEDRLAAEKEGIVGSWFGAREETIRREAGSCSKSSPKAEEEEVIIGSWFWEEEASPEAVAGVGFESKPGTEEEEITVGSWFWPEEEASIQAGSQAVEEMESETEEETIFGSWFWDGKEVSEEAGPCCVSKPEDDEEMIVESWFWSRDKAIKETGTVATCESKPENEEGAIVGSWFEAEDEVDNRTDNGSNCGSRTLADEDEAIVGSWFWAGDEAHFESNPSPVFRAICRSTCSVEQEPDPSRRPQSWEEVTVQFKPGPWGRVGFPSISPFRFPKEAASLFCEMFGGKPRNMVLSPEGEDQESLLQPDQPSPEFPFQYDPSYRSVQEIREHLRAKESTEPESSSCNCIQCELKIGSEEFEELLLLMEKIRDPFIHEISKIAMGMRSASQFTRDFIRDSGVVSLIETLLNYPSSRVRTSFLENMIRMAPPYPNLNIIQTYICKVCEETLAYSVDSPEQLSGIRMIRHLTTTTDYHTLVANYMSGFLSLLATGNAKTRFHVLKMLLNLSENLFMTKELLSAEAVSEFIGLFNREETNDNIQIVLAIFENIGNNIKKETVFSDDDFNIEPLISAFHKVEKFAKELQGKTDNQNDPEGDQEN
Regarding F325A;K326A, the “effect of a mutation on the interaction” value is listed as “decreasing interaction”.
